Assay results: patent publication US20240376170A1 (BRIGHT PEAK THERAPEUTICS, published 2024)
Bridges are numbered along the chain shown (N, C = ends). Primed or numbered codes have the meaning given here. Side-chain parts run from the residue outwards. [ ]: non-standard residue; d: D form. 8x polyethylene glycol‑amino = O-(8x polyethylene glycol-amino)-tyrosine, SITE 45; 9x polyethylene glycol‑azido = O-(9x polyethylene glycol-azido)-tyrosine, SITE 42; Ygp(8) = Tyr, amino-capped PEG8 (O-(8x polyethylene glycol-amino)-tyrosine); Yn3(8) = Tyr, azide-capped PEG9 (O-(9x polyethylene glycol-azido)-tyrosine); Ygp = O-(8x polyethylene glycol-amino)-tyrosine (Tyr, amino-capped PEG8); Yn3 = O-(9x polyethylene glycol-azido)-tyrosine (Tyr, azide-capped PEG9); Ygp″ = O-(8x polyethylene glycol-amino)-tyrosine; Yn3″ = O-(9x polyethylene glycol-azido)-tyrosine; PEG4′ = 4x polyethylene glycol; PEG9′ = 9x polyethylene glycol; hSer = N[C@@H](CCO)C(=O)O; Nle = CCCC[C@H](N)C(=O)O

T1: IL-2 receptor βγ complex (human, UniProt P14784 27-551; P31785 23-369)
T1 sequence (looked up) 1: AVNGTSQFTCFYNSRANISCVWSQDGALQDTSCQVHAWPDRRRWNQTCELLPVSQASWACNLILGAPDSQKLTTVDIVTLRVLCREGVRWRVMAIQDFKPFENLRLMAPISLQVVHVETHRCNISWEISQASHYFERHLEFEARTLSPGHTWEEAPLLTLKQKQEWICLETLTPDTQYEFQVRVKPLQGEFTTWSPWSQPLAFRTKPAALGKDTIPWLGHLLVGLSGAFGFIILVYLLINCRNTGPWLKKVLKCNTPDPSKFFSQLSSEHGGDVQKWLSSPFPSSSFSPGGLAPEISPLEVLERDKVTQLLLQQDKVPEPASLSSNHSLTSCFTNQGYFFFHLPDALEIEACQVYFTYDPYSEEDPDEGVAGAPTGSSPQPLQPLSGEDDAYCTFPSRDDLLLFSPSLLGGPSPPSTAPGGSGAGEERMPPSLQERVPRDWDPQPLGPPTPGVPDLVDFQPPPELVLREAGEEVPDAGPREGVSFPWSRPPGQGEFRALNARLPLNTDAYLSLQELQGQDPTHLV
T1 sequence (looked up) 2: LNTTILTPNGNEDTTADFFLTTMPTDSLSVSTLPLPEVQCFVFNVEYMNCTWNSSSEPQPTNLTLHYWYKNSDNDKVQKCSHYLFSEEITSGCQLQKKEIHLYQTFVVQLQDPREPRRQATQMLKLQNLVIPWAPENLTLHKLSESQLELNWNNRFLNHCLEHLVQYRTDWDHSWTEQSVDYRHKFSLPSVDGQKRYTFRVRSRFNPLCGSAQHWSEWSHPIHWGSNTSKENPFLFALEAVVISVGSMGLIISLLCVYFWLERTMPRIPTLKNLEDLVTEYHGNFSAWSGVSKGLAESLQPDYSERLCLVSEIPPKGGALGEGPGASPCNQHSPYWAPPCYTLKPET

T2: IL-2Rβγ on HEK-Blue IL-2Rβγ reporter cells (InvivoGen) (UniProt P14784 27-551; P31785 23-369, limits assumed)
T2 sequence (looked up) 1: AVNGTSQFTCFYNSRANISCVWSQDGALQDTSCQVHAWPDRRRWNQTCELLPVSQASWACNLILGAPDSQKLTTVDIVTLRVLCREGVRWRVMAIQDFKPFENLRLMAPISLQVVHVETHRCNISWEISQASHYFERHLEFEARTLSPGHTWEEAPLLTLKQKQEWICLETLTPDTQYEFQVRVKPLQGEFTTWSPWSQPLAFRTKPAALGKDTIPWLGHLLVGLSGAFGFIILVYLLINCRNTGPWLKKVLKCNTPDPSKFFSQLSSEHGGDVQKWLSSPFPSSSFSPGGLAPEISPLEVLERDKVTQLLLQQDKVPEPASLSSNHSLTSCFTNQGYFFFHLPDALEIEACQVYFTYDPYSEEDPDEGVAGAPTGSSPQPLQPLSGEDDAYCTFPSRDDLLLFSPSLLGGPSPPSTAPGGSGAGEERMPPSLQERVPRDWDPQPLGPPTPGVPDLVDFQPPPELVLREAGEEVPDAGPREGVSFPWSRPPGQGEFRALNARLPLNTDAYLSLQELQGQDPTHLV
T2 sequence (looked up) 2: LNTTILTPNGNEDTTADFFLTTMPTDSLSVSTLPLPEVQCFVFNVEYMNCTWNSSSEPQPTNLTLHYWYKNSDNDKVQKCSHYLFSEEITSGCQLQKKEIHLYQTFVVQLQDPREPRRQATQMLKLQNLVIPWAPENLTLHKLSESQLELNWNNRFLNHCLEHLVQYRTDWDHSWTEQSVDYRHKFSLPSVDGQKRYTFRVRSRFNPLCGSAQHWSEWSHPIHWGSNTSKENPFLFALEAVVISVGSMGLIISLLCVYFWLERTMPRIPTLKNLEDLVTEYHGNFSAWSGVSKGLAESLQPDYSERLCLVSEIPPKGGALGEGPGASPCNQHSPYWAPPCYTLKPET

B1: CMP-330, Matriptase cleaved molecule (ligand)
chain: APTSSSTKKTQLQLEHLLLDLQEILNGINNYKNPKLTR[Nle]L[hSer]Y(9x polyethylene glycol‑azido)KFY(8x polyethylene glycol‑amino)[Nle]PKKATELKHLQCLEEELKPLEEVL[hSer]LAQSKNFHLRPRDLISNINVIVLELKGSETTF[hSer]CEYADETATIVEFLNRWITFSQSIISTLT
modifications: not fully specified; also: K9 and E23 side chains attached to another sequence, matriptase-cleaved product, remnants not given here
B2: CMP-317, MMP2 cleaved molecule (ligand)
chain: APTSSSTKKTQLQLEHLLLDLQEILNGINNYKNPKLTR[Nle]L[hSer]Y(9x polyethylene glycol‑azido)KFY(8x polyethylene glycol‑amino)[Nle]PKKATELKHLQCLEEELKPLEEVL[hSer]LAQSKNFHLRPRDLISNINVIVLELKGSETTF[hSer]CEYADETATIVEFLNRWITFSQSIISTLT
modifications: also: A1 attached to another sequence via 4x polyethylene glycol, E23 side chain attached to another sequence, m119 after MMP2 cleavage, product not given here as a sequence
B3: CMP-319 (ligand)
chain: RGRRVANLVGAPTSSSTKKTQLQLEHLLLDLQEILNGINNYKNPKLTR[Nle]L[hSer][Yn3]KF[Ygp][Nle]PKKATELKHLQCLEEELKPLEEVL[hSer]LAQSKNFHLRPRDLISNINVIVLELKGSETTF[hSer]CEYADETATIVEFLNRWITFSQSIISTLT
modifications: lactam N-33; ends not checked
B4: CMP-321, MMP2 cleaved molecule (ligand)
chain: SGRVQPLVDAPTSSSTKKTQLQLEHLLLDLQEILNGINNYKNPKLTR[Nle]L[hSer][Yn3(8)]KF[Ygp(8)][Nle]PKKATELKHLQCLEEELKPLEEVL[hSer]LAQSKNFHLRPRDLISNINVIVLELKGSETTF[hSer]CEYADETATIVEFLNRWITFSQSIISTLT
modifications: lactam N-32; also: MMP2 cleaved, cleavage site and product not given here
B5: CMP-320 (ligand)
chain: SGRVAPQPLVDAPTSSSTKKTQLQLEHLLLDLQEILNGINNYKNPKLTR[Nle]L[hSer][Yn3(8)]KF[Ygp(8)][Nle]PKKATELKHLQCLEEELKPLEEVL[hSer]LAQSKNFHLRPRDLISNINVIVLELKGSETTF[hSer]CEYADETATIVEFLNRWITFSQSIISTLT
modifications: lactam N-34
B6: CMP-324 (ligand)
chain: LVGAPTSSSTKKTQLQLEHLLLDLQEILNGINNYKNPKLTR[Nle]L[hSer][Yn3″]KF[Ygp″][Nle]PKKATELKHLQCLEEELKPLEEVL[hSer]LAQSKNFHLRPRDLISNINVIVLELKGSETTF[hSer]CEYADETATIVEFLNRWITFSQSIISTLT
modifications: not fully specified (residue 26); ends and bridges not checked; also: Glu26 side chain attached to another sequence (short peptide)
B7: CMP-301 (ligand)
chain: GPLGLAG[PEG9′]APTSSSTKKTQLQLEHLLLDLQEILNGINNYKNPKLTR[Nle]L[hSer][Yn3″]KF[Ygp″][Nle]PKKATELKHLQCLEEELKPLEEVL[hSer]LAQSKNFHLRPRDLISNINVIVLELKGSETTF[hSer]CEYADETATIVEFLNRWITFSQSIISTLT
modifications: lactam N-31; ends not checked
B8: CMP-301, MMP2 cleaved (ligand)
chain: APTSSSTKKTQLQLEHLLLDLQEILNGINNYKNPKLTR[Nle]L[hSer][Yn3″]KF[Ygp″][Nle]PKKATELKHLQCLEEELKPLEEVL[hSer]LAQSKNFHLRPRDLISNINVIVLELKGSETTF[hSer]CEYADETATIVEFLNRWITFSQSIISTLT
modifications: ends and bridges not checked; also: MMP2 cleaved, ring opened, cut site and remnants not given here
B9: CMP-321 (ligand)
chain: SGRVQPLVDAPTSSSTKKTQLQLEHLLLDLQEILNGINNYKNPKLTR[Nle]L[hSer][Yn3(8)]KF[Ygp(8)][Nle]PKKATELKHLQCLEEELKPLEEVL[hSer]LAQSKNFHLRPRDLISNINVIVLELKGSETTF[hSer]CEYADETATIVEFLNRWITFSQSIISTLT
modifications: lactam N-32
B10: CMP-330, MMP2 cleaved molecule (ligand)
chain: APTSSSTKKTQLQLEHLLLDLQEILNGINNYKNPKLTR[Nle]L[hSer]Y(9x polyethylene glycol‑azido)KFY(8x polyethylene glycol‑amino)[Nle]PKKATELKHLQCLEEELKPLEEVL[hSer]LAQSKNFHLRPRDLISNINVIVLELKGSETTF[hSer]CEYADETATIVEFLNRWITFSQSIISTLT
modifications: not fully specified; also: K9 and E23 side chains attached to another sequence, MMP2-cleaved product, remnants not given here
B11: CMP-330, uPa cleaved molecule (ligand)
chain: APTSSSTKKTQLQLEHLLLDLQEILNGINNYKNPKLTR[Nle]L[hSer]Y(9x polyethylene glycol‑azido)KFY(8x polyethylene glycol‑amino)[Nle]PKKATELKHLQCLEEELKPLEEVL[hSer]LAQSKNFHLRPRDLISNINVIVLELKGSETTF[hSer]CEYADETATIVEFLNRWITFSQSIISTLT
modifications: not fully specified; also: Lys9 side chain attached to another sequence, Glu23 side chain attached to another sequence
B12: CMP-323 (ligand)
chain: LVGAPTSSSTKKTQLQLEHLLLDLQE([Arg-Gly-Arg])ILNGINNYKNPKLTR[Nle]L[hSer][Yn3″]KF[Ygp″][Nle]PKKATELKHLQCLEEELKPLEEVL[hSer]LAQSKNFHLRPRDLISNINVIVLELKGSETTF[hSer]CEYADETATIVEFLNRWITFSQSIISTLT
modifications: not fully specified; ends and bridges not checked
B13: CMP-325 (ligand)
chain: RVANLVGAPTSSSTKKTQLQLEHLLLDLQE([Arg-Gly-Arg])ILNGINNYKNPKLTR[Nle]L[hSer][Yn3″]KF[Ygp″][Nle]PKKATELKHLQCLEEELKPLEEVL[hSer]LAQSKNFHLRPRDLISNINVIVLELKGSETTF[hSer]CEYADETATIVEFLNRWITFSQSIISTLT
modifications: not fully specified; ends and bridges not checked
B14: CMP-317 (ligand)
chain: GSGSGSG[PEG4′]APTSSSTKKTQLQLEHLLLDLQEILNGINNYKNPKLTR[Nle]L[hSer][Yn3]KF[Ygp][Nle]PKKATELKHLQCLEEELKPLEEVL[hSer]LAQSKNFHLRPRDLISNINVIVLELKGSETTF[hSer]CEYADETATIVEFLNRWITFSQSIISTLT
modifications: bridge N-31; not fully specified (bridges); ends not checked
B15: CMP-302 (ligand)
chain: GPLGLAGAPTSSSTKKTQLQLEHLLLDLQEILNGINNYKNPKLTR[Nle]L[hSer][Yn3″]KF[Ygp″][Nle]PKKATELKHLQCLEEELKPLEEVL[hSer]LAQSKNFHLRPRDLISNINVIVLELKGSETTF[hSer]CEYADETATIVEFLNRWITFSQSIISTLT
modifications: lactam N-30; ends not checked
B16: CMP-318 (ligand)
chain: SGRVANLVGAPTSSSTKKTQLQLEHLLLDLQEILNGINNYKNPKLTR[Nle]L[hSer][Yn3]KF[Ygp][Nle]PKKATELKHLQCLEEELKPLEEVL[hSer]LAQSKNFHLRPRDLISNINVIVLELKGSETTF[hSer]CEYADETATIVEFLNRWITFSQSIISTLT
modifications: lactam N-32; ends not checked

Assays:
IL-2 receptor βγ complex = molecular target: T1, IL-2 receptor βγ complex; experiment: cell-based or functional assay
[1] = molecular target: T2, IL-2Rβγ on HEK-Blue IL-2Rβγ reporter …; experiment: cell-based or functional assay

Average EC50, pSTAT5 Assay in NK cells (IL-2 receptor βγ complex) [nM]	further results	Binder
16.4	–	B1
12.2	–	B2
7.72	–	B3
2.94	–	B4
13.2	–	B5
0.38	–	B6
–	Average EC50, HEK-Blue IL-2R (CD122+, CD132+) Reporter Assay, intact molecule [1]: 0.591 nM	B7
–	Average EC50, HEK-Blue IL-2R (CD122+, CD132+) Reporter Assay, MMP2 cleaved molecule [1]: 7.26 pM	B8
55.1	–	B9
6.12	–	B10
27	–	B11
0.13	–	B12
0.18	–	B13
34.1	–	B14
–	Average EC50, HEK-Blue IL-2R (CD122+, CD132+) Reporter Assay, intact molecule [1]: 0.436 nM	B15
37.4	–	B16
